The target of this experiment is OX40 (CD134) on mouse lymph node T cells (mouse) (UniProt P47741). As to the kind of experiment: cell-based or functional assay.

B1: OX40 agonistic antibody (OX86) (antibody, from another filing, V domains shown)
VH: QVQLKESGPGLVQPSQTLSLTCTVSGFSLTGYNLHWVRQPPGKGLEWMGRMRYDGDTYYNSVLKSRLSISRDTSKNQVFLKMNSLQTDDTAIYYCTRDGRGDSFDYWGQGVMVTVSS
VL: DIVMTQGALPNPVPSGESASITCRSSQSLVYKDGQTYLNWFLQRPGQSPQLLTYWMSTRASGVSDRFSGSGSGTYFTLKISRVRAEDAGVYYCQQVREYPFTFGSGTKLEIK
On to B1, for which the interferon-gamma secretion (ELISA), after subtracting background of the negative control came out at 15 pg/mL.

These data come from patent US20100076060A1.
